This is an account of results in article PMC11236980, “PARG is essential for Polθ-mediated DNA end-joining by removing repressive poly-ADP-ribose marks”.

In one data set the target is Polθ-hel (human, UniProt O75417 1-894). Kind of data set: EMSA; PARP1 or NAD+ omitted; 40 nM protein, 10 nM DNA; 25 mM Tris-HCl pH 7.5, 5 mM MgCl2, 30 mM NaCl, 5% glycerol, 0.1 mg/mL BSA, 1 mM DTT; PARylation 20 min 37 °C, binding at room temperature; 8% native PAGE 0.5x TBE. The conditions noted are these: protein: recombinant; label: 5'-Cy3; single strand.
Chain of Polθ-hel (O75417 1-894): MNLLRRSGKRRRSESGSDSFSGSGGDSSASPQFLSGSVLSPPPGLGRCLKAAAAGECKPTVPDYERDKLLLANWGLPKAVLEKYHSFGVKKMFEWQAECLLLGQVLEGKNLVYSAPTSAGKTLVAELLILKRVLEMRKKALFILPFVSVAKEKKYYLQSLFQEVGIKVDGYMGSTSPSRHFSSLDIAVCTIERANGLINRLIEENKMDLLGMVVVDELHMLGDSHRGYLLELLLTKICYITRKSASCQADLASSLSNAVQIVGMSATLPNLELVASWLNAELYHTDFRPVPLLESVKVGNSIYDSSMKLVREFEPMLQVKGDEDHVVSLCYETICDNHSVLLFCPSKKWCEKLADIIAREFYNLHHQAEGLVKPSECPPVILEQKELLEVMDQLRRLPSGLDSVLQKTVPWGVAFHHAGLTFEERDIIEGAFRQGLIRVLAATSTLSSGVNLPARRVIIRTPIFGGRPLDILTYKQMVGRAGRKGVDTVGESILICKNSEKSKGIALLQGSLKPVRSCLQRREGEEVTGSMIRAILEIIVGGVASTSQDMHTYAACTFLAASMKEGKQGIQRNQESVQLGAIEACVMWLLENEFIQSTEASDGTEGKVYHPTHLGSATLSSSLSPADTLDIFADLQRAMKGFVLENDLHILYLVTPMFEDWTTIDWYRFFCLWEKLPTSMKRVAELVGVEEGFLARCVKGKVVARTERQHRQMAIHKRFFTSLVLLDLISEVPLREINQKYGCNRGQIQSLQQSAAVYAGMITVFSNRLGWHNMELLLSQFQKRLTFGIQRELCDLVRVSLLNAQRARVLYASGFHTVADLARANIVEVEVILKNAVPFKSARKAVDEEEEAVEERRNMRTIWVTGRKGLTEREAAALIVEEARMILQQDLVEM
A further data set has as its target PARP1 (UniProt P09874 1-1014). Kind of data set: EMSA; 25 nM PARP1; 25 mM Tris-HCl pH 7.5, 5 mM MgCl2, 30 mM NaCl, 5% glycerol, 0.1 mg/mL BSA, 1 mM DTT; PARylation 20 min 37 °C, binding at room temperature; 8% native PAGE 0.5x TBE. Particulars: protein: recombinant; tags: N-terminal His; label: 5'-Cy3; single strand.

Chain of PARP1 (P09874 whole entry): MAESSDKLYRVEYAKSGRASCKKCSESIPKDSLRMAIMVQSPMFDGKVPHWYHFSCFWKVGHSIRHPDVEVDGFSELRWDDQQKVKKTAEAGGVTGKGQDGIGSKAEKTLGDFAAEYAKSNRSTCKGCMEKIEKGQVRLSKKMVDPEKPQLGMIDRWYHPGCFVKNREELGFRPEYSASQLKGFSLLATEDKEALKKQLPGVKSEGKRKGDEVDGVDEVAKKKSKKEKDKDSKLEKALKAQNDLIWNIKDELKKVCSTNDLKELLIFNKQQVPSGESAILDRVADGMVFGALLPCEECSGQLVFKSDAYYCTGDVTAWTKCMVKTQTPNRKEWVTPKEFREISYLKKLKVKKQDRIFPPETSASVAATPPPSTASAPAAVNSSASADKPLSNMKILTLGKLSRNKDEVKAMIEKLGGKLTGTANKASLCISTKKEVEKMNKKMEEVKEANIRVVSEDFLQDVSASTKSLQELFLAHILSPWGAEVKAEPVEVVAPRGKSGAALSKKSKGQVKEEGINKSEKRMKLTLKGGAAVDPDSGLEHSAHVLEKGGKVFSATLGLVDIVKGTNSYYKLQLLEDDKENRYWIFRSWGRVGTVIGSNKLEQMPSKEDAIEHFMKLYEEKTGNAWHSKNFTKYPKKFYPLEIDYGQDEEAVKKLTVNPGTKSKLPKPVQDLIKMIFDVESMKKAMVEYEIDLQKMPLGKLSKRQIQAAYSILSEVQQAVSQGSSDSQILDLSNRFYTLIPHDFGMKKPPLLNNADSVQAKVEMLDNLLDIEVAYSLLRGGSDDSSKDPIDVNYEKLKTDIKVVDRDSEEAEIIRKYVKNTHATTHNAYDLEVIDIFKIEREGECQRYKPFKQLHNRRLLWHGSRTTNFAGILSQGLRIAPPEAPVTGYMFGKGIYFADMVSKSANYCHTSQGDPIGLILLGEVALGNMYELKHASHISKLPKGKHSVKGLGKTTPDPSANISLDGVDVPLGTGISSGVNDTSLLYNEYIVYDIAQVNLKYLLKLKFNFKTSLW

As to TTTTTTTTTTTTTTTTTTTTTTTTTTTTT (ssDNA) [RP316-Cy3], the binding result in the data set with Polθ-hel is on record as “binds”; with PARP1, “no binding”.
